This is an account of results in patent CN114349851A (SHANGHAI NAI BIOTECHNOLOGY CO LTD, dated 2022).

A word on the IC50: it is the midpoint of a concentration-inhibition curve. A lower IC50 goes with greater potency. Broadly, the Kd is the free concentration of one partner at which half of the binding sites on the other are occupied at equilibrium, for simple one-to-one binding. Low readings indicate a tighter complex, high ones a looser complex.

For test [1], the target named is T1, RBD-Fc (RBD与Fc的融合蛋白), 野生型RBD (SARS-CoV-2, UniProt P0DTC2 319-541). Briefly: competitive ELISA, nanobody titrated against RBD binding to coated ACE2. A general note: ELISA stands for enzyme-linked immunosorbent assay.
The target of test [2] is T1, RBD-Fc (RBD与Fc的融合蛋白), 野生型RBD. Kind of test: BLI (Octet RED96), His-tagged nanobody on Ni-NTA sensor, RBD-Fc as analyte.
For test [3] the target is unchanged. Kind of test: BLI, compared with C5.

B1: 纳米抗体C5D2 (VHH)
VHH: DVQLVESGGGSVQAGGSLRLSCAASGEYSQLRFLGWFRQAPGKEREGVAAGLGANEDGYYADSVKGRFTVSLDNAENTVYLQMNSLKPEDTALYYCAALVIFSHDGPEFLAQNYWGQGTQVTVSS
In the case of B1, the IC50 in test [1] is 28 nM. In test [2], this molecule came in with an equilibrium dissociation constant (Kd) below 0.001 nM.

B2: 纳米抗体C5G2 (VHH)
VHH: DVQLVESGGGSVQAGGSLRLSCAASGKFSHLVFLGWFRQAPGKEREGVAAGLGAYESGYYADSVKGRFTVSLDNAENTVYLQMNSLKPEDTALYYCAALVVLSRDNTEFIAHNYWGQGTQVTVSS
As to B2, the “fold increase in affinity over C5” value in test [3] is 11 fold. The molecule further showed an IC50 in test [1] of 88 nM. This molecule yielded an equilibrium dissociation constant (Kd) in test [2] of 1.62 nM.
